Experimental data published in patent US20100310509A1 (published 2010).

T1: soluble human LIFR (leukemia inhibitory factor receptor) (human, UniProt P42702 45-833)
T1 construct: extracellular domain; Bought; also called soluble LIFR
T1 sequence (looked up): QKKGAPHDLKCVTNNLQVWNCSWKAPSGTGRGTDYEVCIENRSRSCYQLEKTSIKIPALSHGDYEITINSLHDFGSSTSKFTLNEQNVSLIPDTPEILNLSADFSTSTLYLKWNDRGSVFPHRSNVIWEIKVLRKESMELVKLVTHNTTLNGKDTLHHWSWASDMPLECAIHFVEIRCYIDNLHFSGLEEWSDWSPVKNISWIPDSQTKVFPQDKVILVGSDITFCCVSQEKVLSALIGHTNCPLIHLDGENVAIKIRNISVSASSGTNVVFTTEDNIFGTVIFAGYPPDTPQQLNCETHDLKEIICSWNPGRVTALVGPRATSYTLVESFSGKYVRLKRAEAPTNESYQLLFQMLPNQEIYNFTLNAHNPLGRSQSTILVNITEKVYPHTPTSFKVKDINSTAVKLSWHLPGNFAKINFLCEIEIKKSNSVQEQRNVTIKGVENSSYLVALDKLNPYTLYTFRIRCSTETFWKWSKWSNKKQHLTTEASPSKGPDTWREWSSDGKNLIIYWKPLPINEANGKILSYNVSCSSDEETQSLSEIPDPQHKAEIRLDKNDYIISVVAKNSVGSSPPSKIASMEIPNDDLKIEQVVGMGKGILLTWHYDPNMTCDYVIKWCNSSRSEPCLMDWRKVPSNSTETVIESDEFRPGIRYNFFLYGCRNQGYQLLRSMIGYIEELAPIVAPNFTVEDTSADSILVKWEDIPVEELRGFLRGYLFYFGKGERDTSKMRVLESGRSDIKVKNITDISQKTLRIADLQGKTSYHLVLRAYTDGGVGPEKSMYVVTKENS


Columns and labels:
[1] = target: T1, soluble human LIFR (leukemia inhibitory …); experiment: ELISA, apparent KD (KD,App), cytokine coated, soluble LIFR titrated (direct)
Procedure: For direct interaction studies, cytokines (LIF, OSM-WT, OSM-M1 or OSM-M2) were immobilized on the 96 well ELISA plate by incubating the wells with 200 μl of 5 nM cytokine solution in PBS, pH 7.4 overnight at 4° C. The wells were then blocked with blocking buffer (4% BSA in PBS) for 1 hour at room temperature. After washing with 250 μl of washing buffer (0.05% Tween-20 in PBS) 3 times, the cytokines were treated with a series of concentrations of soluble human LIFR (Catalog #249-LR-050/CF, R&D Systems, Minneapolis, Minn.) or OSMR (Catalog #4389-OR-050, R&D Systems, Minneapolis, Minn.) in 150 μl of blocking buffer for 2 hours. The wells were then incubated with 150 μl of polyclonal anti-hLIFR (Catalog #AF249-NA, R&D Systems, Minneapolis, Minn.) or anti-hOSMR (Catalog #AF662, R&D Systems, Minneapolis, Minn.) in blocking buffer for 1 hour followed by incubation with 150 μl of HRP conjugated […] antibody (GE Healthcare, Uppsala, Sweden) in blocking buffer for 30 minutes. The wells were then washed 3 times with washing buffer and treated with 100 μl of chromogenic Slow-TMB® HRP substrate (Catalog #34024, Thermo Scientific Fisher, Rockford, Ill.) for 15 minutes. The reaction was then stopped by adding 100 μl of 2M H₂SO₄ and the absorbance of each well at 450 nm was read immediately using a UV detector (iMARK® Microplate Reader, Biorad, Hercules, Calif.). For interactions of higher order, soluble human gp130 (Catalog #671-GP-100, R&D Systems, Minneapolis, Minn.) was immobilized on 96 well ELISA microplates by incubating the wells with 200 μl of 1 nM gp130 solution (in PBS, pH 7.4) overnight at 4° C. The wells were then blocked with 150 μl of blocking buffer (4% BSA in PBS) for 1 hour at room temperature. After washing with 250 μl of washing buffer 3 times, gp130 was treated with saturating amounts of the cytokines (500 nM hLIF, 200 nM OSM-WT, 200 nM OSM-M1 or 200 nM OSM-M2) in a volume of 150 μl of blocking buffer for a period of 2 hours. The cytokine solution was discarded and a series of concentrations of soluble human LIFR or OSMR in a final volume of 150 μl blocking buffer were then added to the wells and the incubation was continued for another 1 hour. After washing with 250 μl of washing buffer 3 times, the wells were then incubated with 150 μl of polyclonal anti-hLIFR or anti-hOSMR in blocking buffer for 1 hour.

[2] = target: OSMR:gp130 receptor complex on A375 melanoma cells (UniProt Q99650 28-979; P40189 23-918, limits assumed); experiment: cell-based or functional assay
[3] = target: LIFR:gp130 receptor complex on human retinal Müller cells (human, UniProt P42702 45-1097; P40189 23-918); experiment: cell-based or functional assay
LIFR:gp130 receptor complex on human retinal Müller cells, sequence (P42702 45-1097, one chain of several): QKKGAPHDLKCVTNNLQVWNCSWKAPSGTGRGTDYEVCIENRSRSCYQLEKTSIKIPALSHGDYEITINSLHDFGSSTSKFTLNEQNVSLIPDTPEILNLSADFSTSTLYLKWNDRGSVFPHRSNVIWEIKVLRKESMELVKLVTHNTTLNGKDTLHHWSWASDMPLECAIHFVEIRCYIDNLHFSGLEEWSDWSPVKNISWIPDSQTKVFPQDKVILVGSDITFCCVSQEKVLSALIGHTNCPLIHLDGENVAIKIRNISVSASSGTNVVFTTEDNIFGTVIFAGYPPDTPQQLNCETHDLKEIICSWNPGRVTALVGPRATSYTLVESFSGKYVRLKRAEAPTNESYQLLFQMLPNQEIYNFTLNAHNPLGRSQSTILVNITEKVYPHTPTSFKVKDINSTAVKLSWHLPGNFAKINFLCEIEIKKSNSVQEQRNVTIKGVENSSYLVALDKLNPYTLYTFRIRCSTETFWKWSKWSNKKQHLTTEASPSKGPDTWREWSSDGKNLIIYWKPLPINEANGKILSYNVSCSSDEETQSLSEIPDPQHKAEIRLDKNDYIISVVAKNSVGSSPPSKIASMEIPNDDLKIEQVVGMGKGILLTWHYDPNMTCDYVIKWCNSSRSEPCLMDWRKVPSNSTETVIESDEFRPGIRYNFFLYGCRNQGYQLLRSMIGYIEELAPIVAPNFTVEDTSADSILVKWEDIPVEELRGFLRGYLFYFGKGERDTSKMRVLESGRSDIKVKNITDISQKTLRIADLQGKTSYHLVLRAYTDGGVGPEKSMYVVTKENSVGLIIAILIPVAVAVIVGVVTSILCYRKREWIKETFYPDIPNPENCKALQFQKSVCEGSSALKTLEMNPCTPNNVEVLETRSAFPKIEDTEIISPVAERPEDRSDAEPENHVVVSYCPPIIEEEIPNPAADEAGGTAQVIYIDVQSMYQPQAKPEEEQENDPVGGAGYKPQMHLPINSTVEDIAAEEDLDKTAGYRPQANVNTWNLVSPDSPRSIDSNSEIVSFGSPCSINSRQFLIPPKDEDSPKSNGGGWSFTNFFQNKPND

| Kd [1] | concentration needed for receptor activation, against native OSM [2] | concentration needed for receptor activation, against native OSM [3] | Binder |
| --- | --- | --- | --- |
| 8.58 nM | – | – | human leukemia inhibitory factor (LIF) (ligand, Purified recombinant protein; also called hLIF) not shown |
| 60 nM | – | – | OSM-WT ('AGA' modified human Oncostatin M, referred to as wild-type OSM) (ligand, also called hOSM with AGA modification; not shown: N-terminal FLAG tag left after thrombin removal of GST) AAIGSCSKEYRVLLGQLQKQTDLMQDTSRLLDPYIRIQGLDVPKLREHCRERPGAFPSEETLRGLGRRGFLQTLNATLGCVLHRLADLEQRLPKAQDLERSGLNIEDLEKLQMARPNILGLRNNIYCMAQLLDNSDTAEPTKAGAGASQPPTPTPASDAFQRKLEGCRFLHGYHRFMHSVGRVFSKWGESPN |
| 10.1 nM | 3 fold lower concentration | 3 fold lower concentration | OSM-M1 (OSM with BC loop truncated from 12 to 7 amino acids) (ligand, Made from the 'AGA' modified OSM template; lacks the thrombin site; not shown: N-terminal FLAG tag left after thrombin removal of GST) AAIGSCSKEYRVLLGQLQKQTDLMQDTSRLLDPYIRIQGLDVPKLREHCRERPGAFPSEETLRGLGRRGFLQTLNATLGCVLHRLADLEQRLGAPSGLNIEDLEKLQMARPNILGLRNNIYCMAQLLDNSDTAEPTKAGAGASQPPTPTPASDAFQRKLEGCRFLHGYHRFMHSVGRVFSKWGESPN |
| 8.75 nM | 3 fold lower concentration | 3 fold lower concentration | OSM-M2 (OSM with BC loop truncated from 12 to 4 amino acids) (ligand, Made from the 'AGA' modified OSM template; lacks the thrombin site; not shown: N-terminal FLAG tag left after thrombin removal of GST) AAIGSCSKEYRVLLGQLQKQTDLMQDTSRLLDPYIRIQGLDVPKLREHCRERPGAFPSEETLRGLGRRGFLQTLNATLGCVLHRLADLEQRLGGGNIEDLEKLQMARPNILGLRNNIYCMAQLLDNSDTAEPTKAGAGASQPPTPTPASDAFQRKLEGCRFLHGYHRFMHSVGRVFSKWGESPN |
